Patent publication US20060211043A1

Biological target: USP-AE, segment from A region to E region of Ultraspiracle (USP) of Spodoptera litura, N-terminal His tag, expressed in Escherichia coli (Spodoptera litura)
Test: cell-based or functional assay

EcR-DF, segment from D region to F region of the molting hormone receptor (EcR) of Spodoptera litura, N-terminal His tag, expressed in Escherichia coli and refolded by gel filtration
molar ratio of EcR-DF to USP-AE at which ponasterone A binding saturates (USP-AE titrated onto a fixed amount of EcR-DF) (molar ratio EcR-DF:USP-AE (1:1)): 1
